According to article PMC8241838, “Structural mechanism of laminin recognition by integrin” (Nature Communications, 2021):

Assays:
[1] = biological target: α6β1 integrin on Expi293F cells, α6 D153A (human, UniProt P05556 21-798, Mn2+; A cytoplasmic form assumed); test: flow cytometry on cells; Expi293F cells transiently expressing α6 (wild type or mutant) with β1, in HBS-BSA with 0.5 mM MnCl2, varying concentrations of sfGFP-tLM511, room temperature 2 h, no washing; non-transfected cells as baseline; conditions: one partner purified
[2] = biological target: α6β1 integrin on Expi293F cells, α6 R157A (human, UniProt P05556 21-798, Mn2+; A cytoplasmic form assumed); test: as above; conditions: one partner purified
Chain of α6β1 integrin on Expi293F cells, α6 R157A (chain, as listed by the source R157A, chain 1 of 2): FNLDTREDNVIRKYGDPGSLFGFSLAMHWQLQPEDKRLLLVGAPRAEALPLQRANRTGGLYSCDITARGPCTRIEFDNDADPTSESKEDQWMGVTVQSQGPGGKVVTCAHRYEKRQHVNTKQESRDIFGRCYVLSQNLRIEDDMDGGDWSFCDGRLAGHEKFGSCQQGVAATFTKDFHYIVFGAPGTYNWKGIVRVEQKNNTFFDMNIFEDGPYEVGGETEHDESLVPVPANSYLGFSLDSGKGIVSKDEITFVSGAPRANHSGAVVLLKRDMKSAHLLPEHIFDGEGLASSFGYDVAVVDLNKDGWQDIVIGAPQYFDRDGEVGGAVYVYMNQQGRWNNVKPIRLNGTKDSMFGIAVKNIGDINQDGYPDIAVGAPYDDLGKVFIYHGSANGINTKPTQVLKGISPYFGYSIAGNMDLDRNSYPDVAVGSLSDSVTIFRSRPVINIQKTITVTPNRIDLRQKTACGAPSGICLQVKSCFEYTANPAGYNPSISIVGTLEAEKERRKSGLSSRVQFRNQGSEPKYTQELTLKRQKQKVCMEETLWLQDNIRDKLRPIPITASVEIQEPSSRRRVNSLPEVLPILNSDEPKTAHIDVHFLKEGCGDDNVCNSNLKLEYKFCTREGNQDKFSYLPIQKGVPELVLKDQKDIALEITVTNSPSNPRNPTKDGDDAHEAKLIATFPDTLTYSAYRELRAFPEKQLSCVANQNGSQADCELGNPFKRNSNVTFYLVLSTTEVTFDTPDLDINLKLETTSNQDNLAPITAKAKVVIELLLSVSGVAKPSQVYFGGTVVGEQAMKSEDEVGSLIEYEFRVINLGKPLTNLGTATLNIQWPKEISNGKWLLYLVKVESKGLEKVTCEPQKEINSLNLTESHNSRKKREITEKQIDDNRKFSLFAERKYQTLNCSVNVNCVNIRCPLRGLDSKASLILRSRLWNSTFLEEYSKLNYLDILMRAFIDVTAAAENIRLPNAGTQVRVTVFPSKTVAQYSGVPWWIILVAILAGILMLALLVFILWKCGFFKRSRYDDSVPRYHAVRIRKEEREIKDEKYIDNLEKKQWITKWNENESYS
Chain of α6β1 integrin on Expi293F cells, α6 R157A (P05556 21-798, chain 2 of 2): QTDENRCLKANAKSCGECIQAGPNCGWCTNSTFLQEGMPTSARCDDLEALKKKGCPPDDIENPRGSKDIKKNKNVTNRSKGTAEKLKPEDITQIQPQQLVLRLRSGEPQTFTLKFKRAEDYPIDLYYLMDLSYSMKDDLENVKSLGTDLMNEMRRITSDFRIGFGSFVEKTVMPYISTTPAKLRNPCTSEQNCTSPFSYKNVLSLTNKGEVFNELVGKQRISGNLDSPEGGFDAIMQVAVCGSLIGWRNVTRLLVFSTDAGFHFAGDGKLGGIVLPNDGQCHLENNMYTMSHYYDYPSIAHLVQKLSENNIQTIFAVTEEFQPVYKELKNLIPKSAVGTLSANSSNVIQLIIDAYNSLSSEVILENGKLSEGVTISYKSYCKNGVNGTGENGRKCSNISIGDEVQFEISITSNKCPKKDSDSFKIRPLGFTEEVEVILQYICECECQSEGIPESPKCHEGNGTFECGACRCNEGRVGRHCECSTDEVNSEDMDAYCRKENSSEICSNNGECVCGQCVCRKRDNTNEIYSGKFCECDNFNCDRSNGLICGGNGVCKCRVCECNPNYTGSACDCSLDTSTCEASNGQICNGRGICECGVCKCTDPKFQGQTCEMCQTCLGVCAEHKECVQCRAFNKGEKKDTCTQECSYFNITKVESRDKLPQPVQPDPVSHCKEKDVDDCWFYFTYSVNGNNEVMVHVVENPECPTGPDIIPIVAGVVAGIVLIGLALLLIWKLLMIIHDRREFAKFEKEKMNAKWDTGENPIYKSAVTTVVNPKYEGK

Chain of α6β1 integrin on Expi293F cells, α6 D153A (chain, as listed by the source D153A, chain 1 of 2): as the sequence (chain, as listed by the source R157A, chain 1 of 2) above, with D153A, A157R counted along it
Chain of α6β1 integrin on Expi293F cells, α6 D153A (P05556 21-798, chain 2 of 2): as the sequence (P05556 21-798, chain 2 of 2) above

B1: trimeric fusion protein PA-sfGFP-tLM511 (complex)
chain 1: ENVERWQGQYEGLRGQDLGQAVLDAGHSVSTLEKTLPQLLAKLSILENRGVHNASLALSASIGRVRELIAQARGAASKVKVPMKFNGRSGVQLRTPRDLADLAAYTALKFYLQGPEPEPGQGTEDRFVMYMGSRQATGDYMGVSLRDKKVHWVYQLGEAGPAVLSIDEDIGEQFAAVSLDRTLQFGHMSVTVERQMIQETKGDTVAPGAEGLLNLRPDDFVFYVGGYPSTFTPPPLLRFPGYRGCIEMDTLNEEVVSLYNFERTFQLDTAVDRPCARSKSTGDPWLTDGSYLDGTGFARISFDSQISTTKRFEQELRLVSYSGVLFFLKQQSQFLCLAVQEGSLVLLYDFGAGLKKAVPLQPPPPLTSASKAIQVFLLGGSRKRVLVRVERATVYSVEQDNDLELADAYYLGGVPPDQLPPSLRRLFPTGGSVRGCVKGIKALGKYVDLKRLNTTGVSAGCTADLLVGRAMTFHGHGFLRLALSNVAPLTGNVYSGFGFHSAQDSALLYYRASPDGLCQVSLQQGRVSLQLLRTEVKTQAGFADGAPHYVAFYSNATGVWLYVDDQLQQMKPHRGPPPELQPQPEGPPRLLLGGLPESGTIYNFSGCISNVFVQRLLGPQRVFDLQQNLGSVNVSTGCAPALQAQTPGLGPRGLQATARKASRRSRQPARHPA
chain 2: not shown
chain 3: DTVDLNKLNEIEGTLNKAKDEMKVSDLDRKVSDLENEAKKQEAAIMDYNRDIEEIMKDIRNLEDIRKTLPSGCFNTPSIEKP
notes: laminin α5 chain (tLMα5), human, residues E2655-A3327, numbered from the initiation Met; sfGFP inserted between the PA tag and tLMα5; laminin β1 chain (tLMβ1), human, residues D1714-L1786, numbered from the initiation Met; laminin γ1 chain (tLMγ1), human, residues D1528-P1609, numbered from the initiation Met; sfGFP gene: GenBank ASL68970.1; also called sfGFP-fused tLM511; fluorescent tLM511 …
Q: What does the source list for B1?
A: fold increase in KD over the wild type [1]: 3.6 fold; fold increase in KD over the wild type [2]: 2.3 fold
